# Test results: the DeepSol protein solubility set
# Test: soluble on expression in E. coli; label from the status in PepcDB or PDB records
row,Sequence,soluble on expression in E. coli
1,MGSDKIHHHHHHMSTKPFVYQDPFPLGKDETKYRKIEGSEKHVTVEQFAGKEVLRVCPEALSILANEAMRDVSFLLRPEHNESVAKILRDPEASMNDKGVALAFLRNAEISANFELPICQDTGTATVIAKKGQQVWTGGKDEEYLSKGVYKTYTEENLRYSQTVALNMYDEINTGTNLPAQVEIQAVDGDAYKFLFMAKGGGSANKTMLFQETKALLTPEKLEKFLVDKMKYLGTAACPPYHIAVVVGGCSADQCMKTVKLASAKYLDALPTQGNEHGQAFRDVELEEKLLQAAYKLGIGAQFGGKYFAHDVRVIRLPRHGASCPVGMAVSCSADRNIKAKITRDGLFVEELDRNPGRLIPEQYRGKHEHGVKIDLNRPMKEILAELSKYPVATPLLLNGTIVVGRDIAHAKFKEIIDAGKPVPEYLLNHPIYYAGPAKTPAGKPSGSFGPTTAGRMDSYVDLLQSKGASMIMIAKGNRSQQVTDACQKYGGFYLGSIGGPAAVLAEENIKKVECIDFPELGMEAVWKIEVENFPAFILVDDKGNDFFKQLGL,not soluble
2,MKKWRFLGIDDSFDDRKCCVVGCVTCGGYVEGFLYTEIDIDGLDATDKLISMVRRSKFREQIKCIFLPGITLGGFNLVDIQRVYRETKIPVVVVMRRKPDMEEFDSAMRNLENYELRRKIVEVAGEIHRIGDIYIQTAGLTPSEAEKLVKASLIKGNMPEPVRISHLVASAIIHGESRGKA,soluble
3,MGHHHHHHGGHMSLRSYLGSISTSKTEVNSMKMHVLKLLIPTMALLLSACASLPPELGNPDDKSVVTQYSAWLERDPATQSPVRMGGVVANISNQKDRTRVELVNLPIDSAGRPNIHQEPQGRFVAYVPGFLDPITYGEGRLLTLYGTTAPSEQGKVGDYEHTYPVMNAQGYHLWRVEERVEVDDIGPYMFPCRGFYCWPRTMPERDGKIIQEVKEGGS,not soluble
4,MGSDKIHHHHHHMTAAVKTTPGFASRLVNGVLAIKPLANLAKHQARQMMIKRAERIGVPWTKEVKTLQARDWKADLTQIENSQLSYPDYYVTSFHAYETGNLSWQAAFEVEPAAYAVHSKVVEGAEEAQGDPMLRQSYHNILKSQIPNEPQDILDVGCSVGLSTFALQAVYSQAKIIGLDLSPYFLAVANYRAQQRQAKINWLHAQAESTGLPDASFDLVSIFLMCHELPQSATRQILAEMRRVLRPGGYLAIMDMNPKSEVYQKMPAYILTLLKSTEPYLDEYFALDIEQAFVEAGFQTPTITNNTHRHRTVIAQVSG,not soluble
5,GPSDMYVHVGNLIYRNLHLFNSEMHESILVSYSSDLIIYRTNTVGDDYIPSCDCTQATYYCKHKNRYFPITVTSHDWYEIQESEYYPKHIQYNLLIGEGPCEPGDCGGKLLCKHGVIGIVTAGGDNHVAFIDLRHFHCAEEQ,soluble
6,MKIVVAKNIGFCFGVERAIRTVEELLDEGKKVVTDGEIVHNKQVMEQLTKKGLKVSSEMTDGEVFVVRAHGIPKDRLEELKKIFPEVVDLTCPIVSQLFKTAQRYAKERKVIVFGKEDHPEMVALRGYAPAIVTKVPFKLEEKKVVFLSQTTSSLEEYKEFVAAMIRMNEFEEAVFLNTICPVTVNREREVEELSKICDLSIVVGGKHSSNTGKLFRIASKHSKTIWIESPDELPADVVKYGTVCVFSGTSTPNSLIENVVRKLKEMEGKRDGTI,soluble
7,MPMYKLTPTFPPNFEVHPKIACYPVGSYHNPSFGGVGPSDAVQVESDPRKALEHKQLSLIEQLKAQTEELKKLLVSLGEAGKAERSAQKPAEKAPKEPEKSAGAASSAPGVPGAPAKLDKDAKKEARKAAKAEAVKKLASGEAPPQKSAKKTVNSTPWTVQDDRKTWETNLTLTVNLPTSLVAYEPQEQLKNATLTVRDVDLPWARALAKVGASRGVSFEGEVKNQTKEKKSSLKVVKGPAPSLQLEKTTVKSLQTIWKLLGSSLGLFSRRPQQVLSASHQAIWLGKAEQILAGSCDQSFVTREASQFLARFDSLSSQWEVCVADIVFRSLLNLGEHLPNNVELWAKKIDALIV,soluble
8,MGSDKIHHHHHHAGCETEGEDIDMRFETCTVSFVQQELRSSYEVYFNGEKSINRSTSVKKNSTLKLEVYKIGEKQPELSQEITLDNSKDIELLKLVGRDIAISSSLEEYTTFTPIISYFNPNTDLYTVTFNNGELSNKVKNYIAEADLSGTLKIVRNVDGQVLYEQDMTIMPEGQFSLMQLSDTDFLDISDGEEADPESRQYTKIRFFYTADAFPGHDKLKLVVYLMDLDAMQFTAPIATIDLEAGKISEYIQIDNDAFGQGVVNGVYDLIDESGNMIVNNLEHFNTSIPIGTSDNKFMTFRFMDPSHQGGDNVQCNFILSTPWK,not soluble
9,MIVIPMAGMSSRFFKAGYTQPKYMLEAHGQTLFEHSVNSFAAYFASTPFLFIVRNVYDTAVFVREKATQLGIKQFYIAELHTETRGQAETVTLGLEELAKQGVDYQGSITVFNIDTFRPNFVFPDISQHSDGYLEVFQGGGDNWSFAKPEHAGSTKVIQTAEKNPISDLCSTGLYHFNRKEDYLEAYREYVARPSQEWERGELYIAPLYNLLIQKGLNIHYHLIARHEVIFCGVPDEYTDFLRQPQPLEHHHHHH,soluble
10,SIETTKGGSGSYPIKTIVVLVQENRSFDHTLGWFKELNREIDGVTKSDPKSNTVSSSDTNSLRVVFGDQSQYVNPDPGHSIQDIYEQVFGKPWDSGKPDPNPGHPNMSGFAQNAERNKKGMSSAVMNGFKPNALPVYKELVQNFAICDRWFASVPASTQPNRLYVHSATSHGATSNDKKLLLEGFPQKTIFESLDEAGFSFGIYYQFPPSTLFYRNLRKLKYLTHFHQYGIQFKKDCKEGKLPNYVVVEQRWFDLLSTPANDDHPSHDVSEGQKLVKEVYEALRSSPQWNEILFIITYDEHGGFYDHVPTPVDGVPNPDGILGPPPYNFEFNRLGVRVPTFFISPWIEPGTVIHGPNGPYPRSQYEHSSIPATVKTIFKLKDFLSKRDSWAGTFESVITRDSPRQDCPETLSTPIKLRGTMAKENAQLSEFQEDLVIMAAGLKGDYKNEELIHKLCKETCVADASKYVTNAFEKFLEESRKARDRGCDENDIVYCVDDDDDHVVIPPQSHSEASNAAAQPKTQTSFFNKLFSCFIRHD,soluble
11,MTAHFPFDNSYVALPPNFFARVAPTPVAAPRLIKLNRPLAVQLGLDPDLLETPEGAEILSGNQMPETAASIAMAYAGHQFGNFVPQLGDGRAILLGEVVDRNGVRRDIQLKGAGRTPFSRMGDGRAALGPVLREYIVSEAMAALGIPTTRSLAAVLTGETVLRDPIQPGAVLTRVASSHIRVGTFQYFAARGDLASVRALADHAIARHYPEAAQAPSPYLALLEGVIGRQAELVASWMMVGFIHGVMNTDNCSVAGETIDYGPCAFMDTFDPKTVYSSIDQFGRYAYGNQPPIALWNLTRLAECLVRLLADDDDKGIEIAQTALGGFAEQFNAAYLAKLAAKLGLFTSQPDDQQLSQEFLTALAKGEADFTLAFRRLSDAAVDPSDLGEVRALFADPAAFDEWAPRWRARIATEPQDATTRQAAMRRVNPAYIPRNHRIEAVIRAAVDRDDFAPFEEILTVLANPFEEKAEFARYAEPPQPHEQVLETFCGTAAALEHHHHHH,soluble
12,MGSDKIHHHHHHMPPRKKAAIASTGIAGLDEILRGGLPLPNLFMLQGAPGSGKTTAAIQFLRAGVEAGESCLYVTLSQSAAELRSIAVSHGWTLDGIHVEELSTTGSIDEADEQSIFMTADLRLDETRKAIEAAIDEHKPQRLVYDSLLEIRLITGDSPRFRRELIGFKSFLSKRKVVALLLDTQSPGLDRSGEEVEGLAHGVIRFDKSLEEYGGVRRRIEVSKMRGVPIADGYHDMAIREGAGVVVFPRIMPSTATEATKPQLIKSGVSELDDMFGGGQEAGTTTLVIGQAGTGKSTMSSLYATAALERGESVALFLFEERLETFFRRSEGLGMQLRQFHKDGKLILRDFNPNEVSPGEFGQIVQDAVVQNKVRVVVIDSLTGYLNSLPHREKAVRDIQSLLKYLARSGVLTMLIVAQHGLLGQNVGIDVDVSFLGDTVLLLRIMEHEGRLRRSITVVKKRHGPHDLDVRELLIESGSVSVVSYNPLPDPK,not soluble
13,MGEAYAEVFPDPDGISGHVKGVVDINAPPEKVWRIMTDCAAAKVMITTLAVCRIVEGDMARGWDIREHVTRRNLVFPGLRIVFRSDYEPYSRIKFKLVGGDLKVEQGEWKLQALDGGRRTRVLYDNRLAVDWPVPKALIREALRKDTPKVLMNLKRLCELEHHHHHH,not soluble
14,MGSDKIHHHHHHMQGDKHRRRVPFASRAEAHARYGAILTEANRHGAQVVLATLAELGRLDLFFLLVVLLKRKDADNDWCFARCREVAASPDGHLDLWAREHYKSTIITFALTIQDILCTPDITVGIFSHSRPGAKAFLQQIKREFEENPVLRAAYPDVLWDNPRTDAPQWSLDGGIVVKRASNPKEATVEAWGLVDGQPIGKHFSLLVYDDVVTPESVTTPDQIRKTTDALAVSYNLGAHGGRRRFIGTRYHFSDTYKDILDRETAVPRIYPATVDGSVTGLPHFLSPEALAAKRRDMGPYIFGCQMLQNPKADDAAGFKAEWLRYWEPSRDLCERMNRYIIVDPAHSKKAAADYTVMWVVGFGADGYRYVIEGVRDRLNLAERTRELFRLVRAHRPLCVGYERYGLQADVEHIRGEQDRTGYHFDIVELGGAMPKADRIRRLVPLFEQGRIFLPGRMSYRDVEGRWRDLTGEFVQEEYLAFPVCGHDDMLDCLARQVDEALGAVFPDEDDYAASVGGMPNDPHAGALTSLGFDDYDPLGHMRASS,not soluble
15,MSLINLDVWIDLTNAPHVHYFCQLIKKFEKEGIEYLLTFRDSGNLAKLVEIYNFVGKCIGKHGNTLKDKLIFYAERVIGLTELISNVKPKVAIAKHSVELPRVAFGLNIPVIFVVDNEHAEAQNKLTLPLADEIIKPIATDENKLKEFGGRNFISFEGTCEVANVNSRLKGYYPIDNEILKKLGICDDNPTIVMRPCPNSSYCNGHKDILPKIIEKLQKRIDCNIVVFPRDEHQKEIYREVNAIVPKETIDALSLLYNSDFMIGAGGTMNRESAILGIPTVSCYPQELLGVDKYLIEKDRMIHTNDIKEIINYVEDNLGKRMGVIELEDPTDLMFERVCNYLKEGHHHHHH,soluble
16,MVTVRYYATLRPITKKKEETFNGISKISELLERLKVEYGSEFTKQMYDGNNLFKNVIILVNGNNITSMKGLDTEIKDDDKIDLFPPVAGG,soluble
17,MGSDKIHHHHHHMNADTPLQLLGGLTAAEFLRDYWQRKPLLVRQAIPDFESPLSADELAGLSLEESVESRIVLEHGKTPWEMRRGPFQEEDYQHLPEQDWTLLVQAVDQFVPEVAQLLEQFRFLPSWRIDDVMISYAAPGGGVGPHFDNYDVFLLQGHGRRRWKVGQMCSSDSPLREHADLRILADFEQSDEWVLEPGDMLYLPPRLAHYGIAEDECMTYSIGFRAPSAAEVLTHFTDFLGQFLSDEERYTDAGLQPVGDDPHQIQRDALERLQGLIQEHMSDERLLLTWFGQFMTEPRYPELVAGEEIPEEELFGALEDGALLVRNPSARLAWSEIDIGLVLFASGQSVLLPGQLKELLKLVCSADALHLENLGQWLADDDARKLLAELVKQGSLEFADE,not soluble
18,MAKSLLRSGNLDDYQAVGGGGQAVFESALQIRETLRLRKQQAMVDCLAIPQLNDNGDRVDWYSPIEGQAIAWKAADEETRSRALRYLASTFESAAALSRKSLQSGKTALQLFGSLLEKATQFPGENHVFLVNGKPVITFWGFVNLNENTRDDVLDCLRVTEAIPDIPLVEPEPEEKPLVEAAFSQADEPLLTSVIEPPKMPEEPAAPPVIVSEPKPAAPIPVAEAKRARRLPLWSLPVAAVVIAAVATPFFWPSSSVDGASPVRAAPVATAKTDVTPLPELTAHLPLHRAEVTPAPKAAPLPEAPVIIAAIPKDALVMDNTQMKLGTTRFLNGSWRISVDVKDPITGKPPSLRYQIQNNKGIARVVHGDNVVCRAEIFSGLHQTGELMIKSRGNARCTDGSRYPMPEITCKAGVNDVATCTARYGDHAAIPLTFKKIGA,not soluble
